This note sets out measurements from patent US20030092035A1 (CALIFORNIA INSTITUTE OF TECHNOLOGY, published 2003).

Ends that are not written are not given here.

Experiment [1] has as its target T1, MRGA4-GFP fusion protein (mouse) (UniProt Q91WW2).
T1 sequence: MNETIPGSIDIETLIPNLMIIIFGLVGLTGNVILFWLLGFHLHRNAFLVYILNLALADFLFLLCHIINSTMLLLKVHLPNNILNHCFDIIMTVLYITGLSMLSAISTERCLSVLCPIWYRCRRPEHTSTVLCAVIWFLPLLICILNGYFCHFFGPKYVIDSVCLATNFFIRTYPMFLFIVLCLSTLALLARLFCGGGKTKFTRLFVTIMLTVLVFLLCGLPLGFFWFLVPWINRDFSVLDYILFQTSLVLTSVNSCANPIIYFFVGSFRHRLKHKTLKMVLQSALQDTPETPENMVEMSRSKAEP
Briefly: cell-based or functional assay.

The next experiment concerns the target T2, MRGA1-GFP fusion protein (mouse, UniProt Q91WW5 1-304).
T2 sequence: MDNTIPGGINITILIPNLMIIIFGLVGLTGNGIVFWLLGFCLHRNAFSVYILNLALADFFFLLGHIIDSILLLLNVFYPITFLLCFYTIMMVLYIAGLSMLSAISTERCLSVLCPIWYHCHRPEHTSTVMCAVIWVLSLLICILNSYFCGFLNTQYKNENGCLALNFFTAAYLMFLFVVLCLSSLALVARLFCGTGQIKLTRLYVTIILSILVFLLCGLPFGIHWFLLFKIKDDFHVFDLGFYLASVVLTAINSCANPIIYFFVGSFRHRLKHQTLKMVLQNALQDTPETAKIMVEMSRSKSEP
Briefly: cell-based or functional assay.

For the molecule ACTH (peptide), the EC50, Ca2+ dose-response in HEK-Galpha15 cells in experiment [1] was determined as 200 nM; in the experiment with MRGA1-GFP fusion protein, 60 nM.
In the experiment with MRGA1-GFP fusion protein, NPFF (peptide) came in with an EC50, Ca2+ dose-response in HEK-Galpha15 cells of 200 nM.
With FLRF-NH2 [FLRFamide], in the experiment with MRGA1-GFP fusion protein, the “EC50, Ca2+ dose-response in HEK-Galpha15 cells” value was around 20 nM.
In experiment [1], AGEGLNSQFWSLAAPQRF-NH2 (peptide, UniProt O15130 93-110, looked up, species assumed, ends and bridges not checked) [NPAF] yielded an EC50, Ca2+ dose-response in HEK-Galpha15 cells of 60 nM.
